# Laboratory results as given in US20090162366A1.
# B1: C40G1 (antibody, V domains shown)
# VH: QLQLQESGPGLVKPSETLSLTCTVSGGSISSSFYYCGWIRQPPGKGLEWIGSIYYRGSTYYNPSLKSRVTISVDTSKNQFSLKLSSVTAADTAVYYCARRVTMVRGVKGDYFDYWGQGTLVTVSS
# VL: DIQMTQSPSSLSASVGDRVTITCRASQGISSWLAWYQQKPEKVPKSLIYAASSLQSGVPSRFSGSGSGTDFTLTISSLQPEDFATYYCQQYNYYPLTFGGGTKVEIKR
# Key:
# [1] = molecular target: M15 (influenza A virus); assay: ELISA on peptide, Ab 10 µg/ml
# [2] = molecular target: M16 (influenza A virus); assay: ELISA on peptide, Ab 10 µg/ml
# [3] = molecular target: M2 peptide (influenza A virus, A/Hong Kong/1/68 (H3N2)); assay: ELISA on peptide, Ab 10 µg/ml
# [4] = molecular target: NM15 (influenza A virus); assay: ELISA on peptide, Ab 10 µg/ml
# [5] = molecular target: NM16 (influenza A virus); assay: ELISA on peptide, Ab 10 µg/ml
# [6] = molecular target: NM17 (influenza A virus); assay: ELISA on peptide, Ab 10 µg/ml
# [7] = molecular target: M2-BSA conjugate (influenza A virus, A/Hong Kong/1/68 (H3N2)); assay: peptide-BSA ELISA (++ EC50<10^-9M; + 10^-9M<EC50<10^-8M)
# [8] = molecular target: M2FG peptide conjugated with BSA (influenza A virus, A/X-31 (H3N2)); assay: as above; settings: remark: other sources report otherwise
# [9] = molecular target: M2G peptide conjugated with BSA (influenza A virus, A/Puerto Rico/8/34 (H1N1)); assay: as above
binder,measurement,setting,value
B1,ELISA(OD450),[1],2.73 OD450
same,ELISA(OD450),[2],2.64 OD450
same,ELISA(OD450),[3],2.56 OD450
same,ELISA(OD450),[4],2.51 OD450
same,ELISA(OD450),[5],2.37 OD450
same,ELISA(OD450),[6],2.41 OD450
same,EC50,[7],< 1 nM
same,EC50,[8],< 1 nM
same,EC50,[9],< 1 nM
